Experimental data taken from IntAct's records for PubMed 23348841.

B1: Nonsense-mediated mRNA decay factor SMG5 (Homo sapiens), Q9UPR3 (parent)
chain: MSQGPPTGESSEPEAKVLHTKRLYRAVVEAVHRLDLILCNKTAYQEVFKPENISLRNKLRELCVKLMFLHPVDYGRKAEELLWRKVYYEVIQLIKTNKKHIHSRSTLECAYRTHLVAGIGFYQHLLLYIQSHYQLELQCCIDWTHVTDPLIGCKKPVSASGKEMDWAQMACHRCLVYLGDLSRYQNELAGVDTELLAERFYYQALSVAPQIGMPFNQLGTLAGSKYYNVEAMYCYLRCIQSEVSFEGAYGNLKRLYDKAAKMYHQLKKCETRKLSPGKKRCKDIKRLLVNFMYLQSLLQPKSSSVDSELTSLCQSVLEDFNLCLFYLPSSPNLSLASEDEEEYESGYAFLPDLLIFQMVIICLMCVHSLERAGSKQYSAAIAFTLALFSHLVNHVNIRLQAELEEGENPVPAFQSDGTDEPESKEPVEKEEEPDPEPPPVTPQVGEGRKSRKFSRLSCLRRRRHPPKVGDDSDLSEGFESDSSHDSARASEGSDSGSDKSLEGGGTAFDAETDSEMNSQESRSDLEDMEEEEGTRSPTLEPPRGRSEAPDSLNGPLGPSEASIASNLQAMSTQMFQTKRCFRLAPTFSNLLLQPTTNPHTSASHRPCVNGDVDKPSEPASEEGSESEGSESSGRSCRNERSIQEKLQVLMAEGLLPAVKVFLDWLRTNPDLIIVCAQSSQSLWNRLSVLLNLLPAAGELQESGLALCPEVQDLLEGCELPDLPSSLLLPEDMALRNLPPLRAAHRRFNFDTDRPLLSTLEESVVRICCIRSFGHFIARLQGSILQFNPEVGIFVSIAQSEQESLLQQAQAQFRMAQEEARRNRLMRDMAQLRLQLEVSQLEGSLQQPKAQSAMSPYLVPDTQALCHHLPVIRQLATSGRFIVIIPRTVIDGLDLLKKEHPGARDGIRYLEAEFKKGNRYIRCQKEVGKSFERHKLKRQDADAWTLYKILDSCKQLTLAQGAGEEDPSGMVTIITGLPLDNPSVLSGPMQAALQAAAHASVDIKNVLDFYKQWKEIG
partner: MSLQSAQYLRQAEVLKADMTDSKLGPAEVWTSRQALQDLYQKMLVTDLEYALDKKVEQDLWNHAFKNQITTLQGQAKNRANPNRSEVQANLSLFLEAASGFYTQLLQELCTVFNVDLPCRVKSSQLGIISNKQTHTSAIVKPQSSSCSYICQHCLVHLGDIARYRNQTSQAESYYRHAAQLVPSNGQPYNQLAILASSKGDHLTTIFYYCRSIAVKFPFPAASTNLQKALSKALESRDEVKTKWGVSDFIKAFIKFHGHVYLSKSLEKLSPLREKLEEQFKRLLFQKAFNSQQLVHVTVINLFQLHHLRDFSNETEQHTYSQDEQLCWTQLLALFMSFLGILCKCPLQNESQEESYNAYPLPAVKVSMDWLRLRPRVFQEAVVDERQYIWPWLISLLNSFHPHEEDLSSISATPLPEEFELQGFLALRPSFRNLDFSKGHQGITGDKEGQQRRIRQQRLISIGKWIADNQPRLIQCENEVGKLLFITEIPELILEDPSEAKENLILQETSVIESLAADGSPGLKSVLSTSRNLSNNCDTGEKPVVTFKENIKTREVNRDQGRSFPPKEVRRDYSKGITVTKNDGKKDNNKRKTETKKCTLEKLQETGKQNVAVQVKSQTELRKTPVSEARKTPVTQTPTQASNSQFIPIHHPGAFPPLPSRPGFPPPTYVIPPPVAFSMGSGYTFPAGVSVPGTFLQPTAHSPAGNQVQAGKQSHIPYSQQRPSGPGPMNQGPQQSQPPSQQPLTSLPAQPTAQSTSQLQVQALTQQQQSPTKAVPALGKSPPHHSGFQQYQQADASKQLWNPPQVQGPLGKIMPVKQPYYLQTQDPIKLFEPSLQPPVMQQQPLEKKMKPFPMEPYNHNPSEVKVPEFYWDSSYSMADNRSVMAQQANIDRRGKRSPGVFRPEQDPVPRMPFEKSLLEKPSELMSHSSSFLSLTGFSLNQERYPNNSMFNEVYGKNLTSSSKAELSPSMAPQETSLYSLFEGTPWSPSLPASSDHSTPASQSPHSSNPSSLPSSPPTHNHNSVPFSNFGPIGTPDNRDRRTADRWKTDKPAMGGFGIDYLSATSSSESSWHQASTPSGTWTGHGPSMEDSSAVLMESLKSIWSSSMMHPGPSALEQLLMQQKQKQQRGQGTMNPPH
B2: Nonsense-mediated mRNA decay factor SMG7 (Homo sapiens), Q92540 (parent)
chain: B1 partner
partner: B1 chain

Variants of: B1
Settings: with smg7_human SMG7, Q92540

| effect of a mutation on the interaction | Variant |
| --- | --- |
| disrupting interaction strength | G120E |

Variants of: B2
Settings: with smg5_human SMG5, Q9UPR3

| effect of a mutation on the interaction | Variant |
| --- | --- |
| disrupting interaction strength | T103E |
| disrupting interaction strength | G100E |
